The target in assay [1] is LuS-N71-SpyTag (Aquifex aeolicus). In words: SDS-PAGE of the covalent conjugate, band intensities; conjugated product or conjugation mixture on SDS-PAGE with DTT; band intensity and molecular weight used to work out the molar share of conjugated nanoparticle subunit.
Assay [2] concerns the target ferritin-N96-SpyTag (Helicobacter pylori). The assay is described as above.

For PIV3 F-SpyCatcher, the percent of nanoparticle subunit conjugated in assay [1] turned out to be 68%.
As for RSV F-SpyCatcher, the percent of nanoparticle subunit conjugated was found to be 67% in assay [1] and 85% in assay [2].

For the origin of these results see paper PMC7584627.
